Where a chain is given by its changes, count along the chain named. Names and notes keep the numbering of the source. Values joined by “and” are separate entries in the source; they are usually repeats but may differ in a detail not shown here. Equal entries are not always repeated. Blank lines part the entries; values can stand above or below the binder they belong to.
Key:
[1] = molecular target: T1, human PD-1 expressed on cells (human, UniProt Q15116 25-288); experiment: cell-based or functional assay
T1 sequence (Q15116 25-288): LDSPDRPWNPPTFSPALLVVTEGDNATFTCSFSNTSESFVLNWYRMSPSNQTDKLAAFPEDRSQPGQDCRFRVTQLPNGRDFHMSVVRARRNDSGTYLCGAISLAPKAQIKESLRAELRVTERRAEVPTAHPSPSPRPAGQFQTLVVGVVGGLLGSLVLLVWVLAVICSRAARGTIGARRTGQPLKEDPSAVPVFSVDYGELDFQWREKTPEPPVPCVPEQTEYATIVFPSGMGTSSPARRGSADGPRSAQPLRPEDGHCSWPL

[2] = molecular target: T2, biotinylated cynomolgus monkey PD-1 extracellular domain monomer (cynomolgus monkey, UniProt B0LAJ3 25-170, Biotinylated; neither the site nor the method is stated, and the letters do not carry it.); experiment: SPR screening (method taken from paragraph 169), N = 2
T2 construct: Captured on a streptavidin sensor chip for SPR; also called Cynomolgus PD-1 (SPR)
T2 sequence (B0LAJ3 entry or part of it limits assumed): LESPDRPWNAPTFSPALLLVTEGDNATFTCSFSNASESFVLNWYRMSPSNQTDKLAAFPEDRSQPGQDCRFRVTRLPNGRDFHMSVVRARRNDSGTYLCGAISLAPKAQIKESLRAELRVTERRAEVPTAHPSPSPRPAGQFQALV
Protocol: KD measurements for screening by Surface Plasmon Resonance (SPR) were performed on a Biacore T200 (GE Healthcare Life Sciences, Pittsburgh, Pa.), and kinetic constants were fit globally using a 1:1 binding model. Biotinylated human or cynomolgus monkey PD-1 extracellular domain monomer was captured at a 1 nM concentration on a Biacore Sensor chip SA (GE Healthcare Life Sciences, Pittsburgh, Pa.), with a carboxymethylated dextran surface pre-immobilized with streptavidin. The captured antigen level was targeted to yield a low response to prevent avidity effects on the dissociation rate. Tm measurements were determined by fluorescence-based thermal shift and differential scanning calorimetry.

[3] = molecular target: T2, biotinylated cynomolgus monkey PD-1 …; experiment: SPR (Biacore T200), biotinylated PD-1 ECD monomer captured on SA chip
[4] = molecular target: T3, cynomolgus PD-1 (as used in KinExA) (cynomolgus monkey); experiment: KinExA (kinetic exclusion assay)
T3 construct: also called Cynomolgus PD-1 KD (KinExA)

[5] = molecular target: T4, cynomolgus monkey PD-1 expressed on cells (cynomolgus monkey, UniProt B0LAJ3 25-288); experiment: flow cytometry, HEK 293 cells stably expressing cynomolgus monkey PD-1
T4 construct: also called cynomolgus PD-1; PD-1 on stably transfected HEK 293 cells
T4 sequence (B0LAJ3 entry or part of it limits assumed): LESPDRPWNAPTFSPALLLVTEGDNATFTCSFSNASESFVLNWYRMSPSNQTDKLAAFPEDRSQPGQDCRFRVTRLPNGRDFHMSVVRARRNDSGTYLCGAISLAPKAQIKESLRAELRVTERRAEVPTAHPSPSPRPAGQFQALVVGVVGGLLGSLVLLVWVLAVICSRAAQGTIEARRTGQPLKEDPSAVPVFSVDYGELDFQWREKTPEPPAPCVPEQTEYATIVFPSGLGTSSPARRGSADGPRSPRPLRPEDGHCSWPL
Protocol: HEK 293 cells were stably transfected to express either human PD-1 or cynomolgus monkey PD-1. Cells were harvested by Accutase™ treatment (Innovative Cell Technologies, San Diego, Calif.), the cells expressing cynomolgus monkey PD-1 were treated with the lipophilic fluorescent dye Vybrant® DiD (ThermoFisher Scientific, Carlsbad, Calif.), and then mixed with an equal number of unlabeled HEK 293 cells expressing human PD-1. Cells (2×10⁵ total per sample) were stained with the indicated concentrations of each antibody for 40 min at 4° C. with gentle shaking, centrifuged and washed once. Cells were fixed in 2% paraformaldehyde in phosphate-buffered saline (PBS) for 10 min at room temperature, washed, and antibodies detected with Phycoerythrin (PE)-conjugated goat anti-human kappa (Southern Biotechnology, Birmingham, Ala.) for 15 min at 4° C. with gentle shaking. Cells were washed, resuspended, and bound antibody fluorescence quantified on a BD FACSArray™ (BD Biosciences, San Jose, Calif.). Data were analyzed for median fluorescence intensity (MFI) using FlowJo® analysis software (FlowJo, LLC). ECso values were determined in GraphPad Prism 5.0 (GraphPad Software) using a log(agonist) vs. response—Variable slope (4 parameters) curve fit. The results are shown in FIGS. 1 and 2, and the ECso values are set forth in Table 2 (human) and Table 3 (cynomolgus monkey). […]

[6] = molecular target: T1, human PD-1 expressed on cells; experiment: flow cytometry, 2-day anti-CD3/anti-CD28 activated human CD4+ T cells
Protocol: Primary human peripheral blood CD4⁺ T cells were prepared using magnetic bead separation (CD4⁺ T Cell Isolation Kit, Miltenyi Biotec, Auburn, Calif.) of peripheral blood mononuclear cells (PBMCs) and activated for 48 hours with plastic-coated anti-CD3 and anti-CD28 in 6-well plates. Cells (1×10⁵ per sample) were washed and stained in V-bottom 96-well plates with the indicated concentrations of each antibody for 30 min at 4° C. with gentle shaking, centrifuged and washed once. Cells were fixed in 4% paraformaldehyde in PBS for 10 min at room temperature, washed, and antibodies detected with Alexa Fluor 647-conjugated F(ab′)2 goat anti-human IgG Fc (Jackson ImmunoResearch, West Grove, Pa.) for 10 min at 4° C. Cells were washed, resuspended, and bound antibody fluorescence quantified on a BD FACSArray™ (BD Biosciences, San Jose, Calif.). Data were analyzed for geometric mean fluorescence intensity (MFI) using FlowJo® analysis software (FlowJo, LLC). ECso values were determined in GraphPad Prism 7.02 (GraphPad Software) using a log(agonist) vs. response—Variable slope (4 parameters) curve fit.

[7] = molecular target: T5, biotinylated human PD-1 extracellular domain monomer (human, UniProt Q15116 25-170, biotinylated (site not stated)); experiment: SPR (Biacore T200), biotinylated PD-1 ECD monomer captured on SA chip
T5 construct: extracellular domain; Captured on a streptavidin sensor chip for SPR; also called Human PD-1 (SPR)
T5 sequence (Q15116 25-170): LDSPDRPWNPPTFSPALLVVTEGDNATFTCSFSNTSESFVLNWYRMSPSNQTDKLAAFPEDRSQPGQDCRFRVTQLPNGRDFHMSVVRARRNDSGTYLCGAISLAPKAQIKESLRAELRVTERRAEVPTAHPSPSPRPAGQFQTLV

B1: APE12890 (3.7C6 anti-PD-1 antibody, CHO-S) (antibody, human IgG1, kappa, V domains shown)
VH: QVQLVQSGSELKKPGASVKVSCKASNYTFTDYSMHWVRQAPGQGLEWMGWINIETYYPTYADQFKGRFAFSLDTSVSTAYLQISSLKAEDTAVYYCARDYYGRFYYAMDYWGQGTTVTVSS
VL: EIVLTQSPATLSLSPGERATLSCTASSSVSSSYFHWYQQKPGQAPRLLIYSTSNLASGIPARFSGSGSGTDFTLTISRLEPEDFAVYYCHQYHRSPLTFGGGTKVEIKR
median IC50 for IFN-γ inhibition, human whole blood tetanus toxoid recall assay [1]: 0.053 nM
median IC50 for IL-17A inhibition, human whole blood tetanus toxoid recall assay [1]: 0.097 nM

Kd [2]: 0.64 nM
Kd [3]: 0.445 nM
B2: APE12537 (3.7C6 anti-PD-1 antibody, CHO-S sorted stable pool) (antibody, human IgG1, kappa, V domains shown)
VH: B1 VH
VL: B1 VL
notes: also called APE12537.01

Kd [4]: 0.45 nM
EC50 [5]: 7.99 nM and 6.17 nM and 7.47 nM
Kd [3]: 0.244 nM
B3: APE12095 (3.7C6 anti-PD-1 antibody, ExpiCHO-S transient) (antibody, V domains shown)
VH: B1 VH
VL: B1 VL
notes: detected with anti-human kappa; Only variable regions are tied to APE12095; suffixes are lots; also called APE12095.03; APE12095.04

Kd [2]: 1.02 nM
B4: 030-13263/030-13264 (CDR-grafted) (antibody, V domains shown)
VH: B1 VH with I53A, Q63D
VL: B1 VL
notes: CDR-grafted forerunner of APE12537; APE12537 differs from it by A52aI and D62Q (Kabat) in the heavy chain

Kd [4]: 0.21 nM
EC50 [5]: 3.69 nM and 2.69 nM and 2.59 nM
EC50 [6]: 2.99 nM and 3.06 nM
Kd [3]: 0.09 nM
Kd [7]: 0.031 nM
B5: APE12043 (437M5-112 anti-PD-1 antibody, ExpiCHO-S transient) (antibody, V domains shown)
VH: QVQLVQSGAEVKKPGASVKVSCKASGYTFTSYSMHWVRQAPGQGLEWMGYINPSSGFTNYIQKFRDRVTMTADKSSSTAYMELSRLRSDDTAVYYCARDYYGRYYYVMDYWGQGTTVTVSS
VL: DIQMTQSPSSLSASVGDRVTITCTASSSVSSSFLHWYQQKPGKAPKLLIYSTSDLASGVPSRFSGSGSGTDFTLTISSLQPEDFATYYCHQYHRSPLTFGGGTKVEIKR
notes: detected with anti-human kappa; Only variable regions are tied to APE12043; the suffixes .02 to .05 are lots; also called APE12043.02; APE12043.03

Kd [3]: 0.217 nM
B6: APE12538 (437M5-112 anti-PD-1 antibody, CHO-S sorted stable pool) (antibody, human IgG1, kappa, V domains shown)
VH: B5 VH
VL: B5 VL
notes: also called APE12538.01
